Assays:
[1] = molecular target: T1, CTLA-4 on human T lymphocytes (PBMC, CD3+ T cells) (human, UniProt P16410 36-223); assay: cell-based or functional assay
T1 sequence (looked up): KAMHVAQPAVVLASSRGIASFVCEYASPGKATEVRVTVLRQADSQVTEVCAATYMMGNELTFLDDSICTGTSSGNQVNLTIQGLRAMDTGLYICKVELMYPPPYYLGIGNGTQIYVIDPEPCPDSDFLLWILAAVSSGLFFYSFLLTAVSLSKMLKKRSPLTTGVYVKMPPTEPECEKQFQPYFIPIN

[2] = molecular target: T2, human CTLA-4 (Y201V), full length, on transfected cells (human, UniProt P16410 36-223); assay: FACS, human CTLA-4 expressing cells
T2 construct: whole, on cells; also called hCTLA-4; HEK293-hCTLA-4 (Y201V)
T2 sequence (looked up): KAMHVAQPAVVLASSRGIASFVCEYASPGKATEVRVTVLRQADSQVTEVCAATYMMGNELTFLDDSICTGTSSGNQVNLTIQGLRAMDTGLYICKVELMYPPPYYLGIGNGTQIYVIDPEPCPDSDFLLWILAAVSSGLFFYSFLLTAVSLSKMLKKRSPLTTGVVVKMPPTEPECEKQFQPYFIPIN

[3] = molecular target: T3, monkey CTLA-4, full length, on transfected HEK293 cells (monkey); assay: FACS, monkey CTLA-4 expressing cells
T3 construct: whole, on cells; also called cCTLA-4; HEK293-cCTLA-4
From the text: (§1) The pIRES plasmid with the monkey-derived CTLA-4 full-length gene was transfected into the HEK293 cell line to construct a HEK293 stable cell line containing monkey CTLA-4 (herein referred to as HEK293-cCTLA-4 stable cell line), wherein the database accession number of the monkey CTLA-4 nucleotide sequence is XM_005574014.1. The HEK293-hCTLA-4 stable cell line and HEK293-cCTLA-4 stable cell line were expanded in a T-75 cell culture flask to a 90% confluence. The medium was aspirated, and the cells were washed with HBSS buffer (Hanks Balanced Salt Solution, purchased from Invitrogen) twice, then treated with an enzyme-free cell dissociation fluid (Versene solution, purchased from Life technology) and the cells were collected. The cells were washed with HBSS buffer twice. After counted, the cells were diluted with HBSS buffer to 2×10⁶ cells per ml, added with 1% goat serum blocking solution, wherein the percentage was the mass percantage. Cells were incubated on ice for 30 minutes, then washed twice with HBSS buffer by centrifugation. The collected cells were suspended in the FACS buffer (HBSS containing 1% BSA, wherein the percentage was the mass percantage) to 2×10⁶ cells/ml, added as 100 microliters per well to a 96-well FACS reaction plate, added with 100 microliters per well of the purified CTLA-4 antibody sample to be tested, incubated on ice for 2 hours. The plate was washed twice with the FACS buffer by centrifugation, added with 100 microliters of fluorescent (Alexa 488)-labeled secondary antibodies (purchased from Invitrogen) per well, and incubated on ice for 1 hour. The plate was washed 3 times with FACS buffer by centrifugation, added with 100 μl fixative solution [4% (v/v) Paraformaldehyde] per well to suspend the cells. 10 minutes later, it was washed 2 times with FACS buffer by centrifugation. The cells were suspended with 100 microliters of FACS buffer, FACS (FACS Calibur, purchased from BD) was used for detection and the results were analyzed.

[4] = molecular target: T4, CTLA-4-hFc (immunogen A; hFc-labeled CTLA-4 extracellular domain protein) (human, UniProt P16410 36-161); assay: blocking assay, CTLA-4 protein, competitor B7.2
T4 construct: range 36-161; Made in HEK293 cells, purified on protein A; also called CLTA-4-hFc; CTLA-4 protein; not shown: human IgG Fc fragment (hFc) of the pCpC vector
T4 sequence (looked up): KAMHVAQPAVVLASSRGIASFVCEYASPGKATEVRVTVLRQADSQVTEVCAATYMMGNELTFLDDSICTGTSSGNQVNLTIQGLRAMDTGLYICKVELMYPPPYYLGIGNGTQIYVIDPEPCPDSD
Experimental: (§2) CTLA-4 extracellular domain protein (CTLA-4-hFc) was diluted with PBS to a final concentration of 1.0 μg/mL, and then added to a 96-well ELISA plate as 100 μl per well. The plate was covered with a plastic film and incubated overnight at 4° C. The plate was washed twice with plate washing solution [PBS containing 0.01% (v/v) Tween 20] on the next day, and added with blocking solution [PBS containing 0.01% (v/v) Tween 20 and 1% (w/w) BSA] and blocked at room temperature for 2 hours. […] After 2 hours, the plate was washed 3 times with a plate washing solution [PBS containing 0.01% (v/v) Tween 20]. HRP (horseradish peroxidase) labeled avidin diluent (purchased from Sigma) was added 100 microliters per well, and after the plate was incubated for 2 hours at 37° C., it was washed with plate washing solution [PBS containing 0.01% (v/v) Tween 20] for 3 times. […] TMB substrate was added to each well. After incubated at room temperature for 30 minutes, the plate was added with […] stop solution (1.0N HCl) to each well. An ELISA plate reader (SpectraMax 384plus, Molecular Device) was used to read the A450 nm value.

[5] = molecular target: T5, recombinant His-labeled hCTLA-4 ECD protein (human, UniProt P16410 36-161); assay: SPR Biacore T200, antibody captured by anti-human Fc, 1:1 model
T5 construct: extracellular domain; also called human CTLA-4 ECD; not shown: His label
T5 sequence (looked up): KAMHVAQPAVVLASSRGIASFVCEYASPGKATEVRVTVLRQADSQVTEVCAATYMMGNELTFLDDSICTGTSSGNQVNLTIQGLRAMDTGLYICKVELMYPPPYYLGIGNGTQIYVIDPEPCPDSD
Experimental: Anti-human Fc IgG was fixed on flow cell 1 and 2. HBS-EP+ (10 mmol/L HEPES, 150 mmol/L NaCl, 3 mM EDTA, 0.05% P20, pH 7.4) was used as the running buffer, and anti-human Fc IgG was fixed using the fixing wizard template. The flow cells 1 and 2 connected in series with S CM5 sensor chip were activated with freshly mixed 50 mmol/L NHS and 200 mmol/L EDC. Anti-human Fc IgG was diluted to […] with 10 mmol/L NaAC (pH 4.5) and injected into activated flow cells 1 and 2. The remaining active coupling sites were blocked with 1 mol/L ethanolamine.
The recombinant His-labeled hCTLA-4 ECD protein was diluted to 50 nmol/L, and then serially diluted 4 times with HBS-EP+ buffer at a 2-fold ratio. […] Each antibody was injected into the CM5 sensor flow cell 2 at a flow rate of 10 μL/min to achieve a response of 230 RU. Then the prepared His-labeled hCTLA-4ECD protein was injected into flow cells 1 and 2 at a flow rate of 30 μL/min for 180 seconds. The buffer flow was maintained for 400 seconds for dissociation measurement (30 μL/min). To remove the tested antibody from the surface, 10 mmol/L glycine-HCl pH1.5 was injected for 20 seconds (30 μL/min). Flow cell 1 was used as a reference flow cell. The above steps were repeated for each concentration of serially diluted His-labeled CTLA-4ECD protein. The KD value of each antibody was evaluated using Biacore T200 evaluation software 1.0, and a 1:1 binding model was used to fit the data.

[6] = molecular target: T3, monkey CTLA-4, full length, on …; assay: FACS, 293F-cCTLA-4 cells
From the text: as §1

[7] = molecular target: T2, human CTLA-4 (Y201V), full length, on …; assay: FACS, CHOK1-hCTLA-4 cells
[8] = molecular target: T4, CTLA-4-hFc (immunogen A; hFc-labeled …); assay: ELISA, coated CTLA-4-hFc, competitor biotin-B7.1-hFc
Experimental: as §2

[9] = molecular target: T4, CTLA-4-hFc (immunogen A; hFc-labeled …); assay: ELISA, coated CTLA-4-hFc, competitor biotin-B7.2-hFc
Experimental: as §2

[10] = molecular target: T4, CTLA-4-hFc (immunogen A; hFc-labeled …); assay: competition ELISA: CTLA-4-hFc coated, antibody titrated, blocked ligand biotin-labeled B7.1-hFc, HRP-avidin, A450, inhibition (%)
Experimental: as §2

[11] = molecular target: T4, CTLA-4-hFc (immunogen A; hFc-labeled …); assay: competition ELISA: CTLA-4-hFc coated, antibody titrated, blocked ligand biotin-labeled B7.2-hFc, HRP-avidin, A450, inhibition (%)
Experimental: as §2

B1: 97B8E1 fully human CTLA-4 antibody (human IgG1, kappa) (antibody, V domains shown)
VH: QVQLVESGGGVVQPGRSLRLSCAASGFTFSSYVMHWVRQAPGKGLEWVAVIWSDGRNKYYTDSVKGRFTISRDNSKNTLYLQMSSLRAEDTAVYYCARSGIALAGNAFDIWGQGTMVTVSS
VL: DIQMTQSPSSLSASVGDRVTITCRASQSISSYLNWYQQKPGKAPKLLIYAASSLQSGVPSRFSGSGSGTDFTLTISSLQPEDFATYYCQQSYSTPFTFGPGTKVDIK
notes: also called mAb50; mAb050
- IL-2 secretion, pg/ml, at 0.13 ug/ml, N = 1 [1]: 1570 pg/mL
- IL-2 secretion, pg/ml, at 0.13 ug/ml, N = 2 [1]: 1450 pg/mL
- IL-2 secretion, pg/ml, at 0.37 ug/ml, N = 1 [1]: 2480 pg/mL
- IL-2 secretion, pg/ml, at 0.37 ug/ml, N = 2 [1]: 1860 pg/mL
- IL-2 secretion, pg/ml, at 1.1 ug/ml, N = 1 [1]: 3460 pg/mL
- IL-2 secretion, pg/ml, at 1.1 ug/ml, N = 2 [1]: 2560 pg/mL
- IL-2 secretion, pg/ml, at 3.3 ug/ml, N = 1 [1]: 4240 pg/mL
- IL-2 secretion, pg/ml, at 3.3 ug/ml, N = 2 [1]: 4200 pg/mL
- IL-2 secretion, pg/ml, at 10 ug/ml, N = 1 [1]: 6650 pg/mL
- IL-2 secretion, pg/ml, at 10 ug/ml, N = 2 [1]: 5210 pg/mL
- IL-2 secretion, pg/ml, at 30 ug/ml, N = 1 [1]: 7650 pg/mL
- IL-2 secretion, pg/ml, at 30 ug/ml, N = 2 [1]: 8210 pg/mL
- MFI at 0.000128 nM [2]: 3
- MFI at 0.0128 nM [2]: 31
- MFI at 0.064 nM [2]: 85
- MFI at 0.32 nM [2]: 229
- MFI at 1.6 nM [2]: 491
- MFI at 8 nM [2]: 727
- MFI at 40 nM [2]: 902
- MFI at 200 nM [2]: 886
- MFI at 0.000128 nM [3]: 2
- MFI at 0.0128 nM [3]: 36
- MFI at 0.064 nM [3]: 97
- MFI at 0.32 nM [3]: 270
- MFI at 1.6 nM [3]: 504
- MFI at 8 nM [3]: 757
- MFI at 40 nM [3]: 810
- MFI at 200 nM [3]: 784
- % Block at 0.000128 nM [4]: 0%
- % Block at 0.0128 nM [4]: 26.3%
- % Block at 0.064 nM [4]: 42.8%
- % Block at 0.32 nM [4]: 82.3%
- % Block at 1.6 nM [4]: 98.7%
- % Block at 8 nM [4]: 99%
- % Block at 40 nM [4]: 99%
- % Block at 200 nM [4]: 99.1%
- Kd [5]: 3.5 nM
- koff [5]: 0.00151 s⁻¹
- kon [5]: 431000 M⁻¹ s⁻¹

B2: 40C4C6 (chimeric antibody purified from hybridoma supernatant) (antibody, V domains shown)
VH: QVQLVESGGGVVQPGRSLRLSCAASGFTFSSYGMHWVRQAPGKGLEWVAVIWYDGRNKYYADSVKGRFTISRDNSKNTLYLQMNSLRAEDTAVYYCARASGSYSYYFDYWGQGTLVTVSS
VL: DIQMTQSPSSLSASVGGRVTITCRASQSISSFLNWYQHELGKAPKLLIYGASSLQSGVPSRFSGSGSGTDFTLTISSLQPEDFATYYCQQTYSTPFTFGPGTKVDIK
notes: also called mAb09; mAb009
- MFI at 0.000128 nM [6]: 2.4
- MFI at 0.0128 nM [6]: 23
- MFI at 0.064 nM [6]: 68.6
- MFI at 0.32 nM [6]: 219
- MFI at 1.6 nM [6]: 421
- MFI at 8 nM [6]: 619
- MFI at 40 nM [6]: 626
- MFI at 200 nM [6]: 643
- MFI at 0.07 nM [7]: 43.3
- MFI at 0.67 nM [7]: 146
- MFI at 6.67 nM [7]: 403
- MFI at 66.67 nM [7]: 449
- Inhibition rate (%) at 0.00091 nM [8]: 0%
- Inhibition rate (%) at 0.091 nM [8]: 12.7%
- Inhibition rate (%) at 0.274 nM [8]: 40%
- Inhibition rate (%) at 0.823 nM [8]: 63.1%
- Inhibition rate (%) at 2.5 nM [8]: 75.2%
- Inhibition rate (%) at 7.4 nM [8]: 80.7%
- Inhibition rate (%) at 22.2 nM [8]: 87.5%
- Inhibition rate (%) at 66.7 nM [8]: 89.7%
- Inhibition rate (%) at 0.00091 nM [9]: 0%
- Inhibition rate (%) at 0.091 nM [9]: 5.3%
- Inhibition rate (%) at 0.274 nM [9]: 26.4%
- Inhibition rate (%) at 0.823 nM [9]: 53.3%
- Inhibition rate (%) at 2.5 nM [9]: 66.6%
- Inhibition rate (%) at 7.4 nM [9]: 76.6%
- Inhibition rate (%) at 22.2 nM [9]: 84.6%
- Inhibition rate (%) at 66.7 nM [9]: 88.7%
- IC50 (read off the curve) [10]: ~0.3 nM
- IC50 (read off the curve) [11]: ~0.5 nM

Reference: patent US20210324080A1 (JIANGSU HUAIYU PHARMACEUTICAL, published 2021)
